Test results reported in paper PMC3153955.

Test system: C[C@@H]1O[C@@H]1P(=O)(O)O
Assay: pyruvate kinase-lactate dehydrogenase coupled assay
Type: biochemical, Streptomyces wedmorensis
Conditions: 1 mM ATP, 10 mM MgCl2, 100 mM KCl, pH 7.2, 25 °C

## FomA (fosfomycin resistance kinase FomA) (Streptomyces wedmorensis)
  Km: 9.9 ± 0.7 µM
  kcat: 155.9 ± 1.5 s⁻¹
